Target: RVFV Gn, WT sequence, transiently expressed in Expi293F cells (Rift Valley fever virus, GenBank …)
Assay: flow cytometry on cells
Settings: one partner purified

B1: RVFV-268 IgG1 (antibody, V domains shown)
VH: QVHLVESGGGVVQPGKSLRLSCAASGFIFNHFGIHWVRQSPGKGLEWVAVIWYDGSKKYFADSVKGRFSISRDNSQNTVYLQMNSLRTEDTAVYYCARERWSGHSYLDYWGHGALVTVSS
VL: SNVLTQPPSVSVAPGQTARISCGGNNLESKYVHWYQQKPGQAPVLVVYEDSGRPSGIPERFSGSNSGGTATLTISRVEAGDEADYYCQEWDTSSDYPVFGGGTKVTVL
notes: copies: 2 + 2
B1: binds.

Source: publication PMC10499838 (Nature Communications, 2023)
